Experimental findings from article PMC2667941 are described below.

Where two headings read alike, the source gives them in different places.

Series [1] concerns the target T1, human alpha-thrombin (Homo sapiens, UniProt P00734;P00734 328-363;364-622). Description: gel filtration chromatography. On the technique in general: In gel filtration, larger molecules generally elute earlier.
In series [2] the target is T1, human alpha-thrombin. Description: gel filtration chromatography. This is another data set of the same source.

B1: ps-po-X on CdTe (same sequence as ps-po) (ssDNA)
DNA: TCCGCTGCAGAAAAATCGGGCGTAC
modifications: 9 phosphorothioate linkages, between the last 10 nt (T*C*G*G*G*C*G*T*A*C); rest phosphodiester
B1: the binding result in series [1] is listed as “no binding”.

B2: ps-po-TBA on CdTe (structured_DNA)
DNA: GGTTGGTGTGGTTGGAAAAATCGGGCGTAC
modifications: 9 phosphorothioate linkages, between the last 10 nt (T*C*G*G*G*C*G*T*A*C); rest phosphodiester
For the molecule B2, the binding result in series [2] is recorded as “binds”.
